The target of data set [1] is T1, ABI4 (Arabidopsis thaliana, UniProt A0MES8 1-328). Briefly: EMSA. (In EMSA bound probe runs differently from free probe, usually more slowly.)
The target in a further data set is T2, RGA (Arabidopsis thaliana, UniProt Q9SLH3 1-587).
T2 sequence: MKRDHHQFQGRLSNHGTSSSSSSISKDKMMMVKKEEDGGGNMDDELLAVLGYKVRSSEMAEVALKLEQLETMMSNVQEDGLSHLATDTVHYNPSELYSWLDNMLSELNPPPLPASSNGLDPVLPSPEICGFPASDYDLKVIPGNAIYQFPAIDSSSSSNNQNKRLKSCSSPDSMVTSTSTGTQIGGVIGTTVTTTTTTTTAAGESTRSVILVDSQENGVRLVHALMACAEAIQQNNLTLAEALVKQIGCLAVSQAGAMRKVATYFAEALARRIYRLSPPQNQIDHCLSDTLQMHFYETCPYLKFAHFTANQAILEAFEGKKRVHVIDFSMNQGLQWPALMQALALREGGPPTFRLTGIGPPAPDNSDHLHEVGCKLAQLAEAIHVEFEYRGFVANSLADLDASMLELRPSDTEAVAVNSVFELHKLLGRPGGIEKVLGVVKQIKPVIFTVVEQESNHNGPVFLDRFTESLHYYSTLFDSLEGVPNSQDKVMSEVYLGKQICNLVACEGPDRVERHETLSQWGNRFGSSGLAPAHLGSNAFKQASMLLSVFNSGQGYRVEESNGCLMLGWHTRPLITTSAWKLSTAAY
Briefly: EMSA.

The target in the next data set is T3, HY5 (Arabidopsis thaliana, UniProt O24646 1-168).
T3 sequence: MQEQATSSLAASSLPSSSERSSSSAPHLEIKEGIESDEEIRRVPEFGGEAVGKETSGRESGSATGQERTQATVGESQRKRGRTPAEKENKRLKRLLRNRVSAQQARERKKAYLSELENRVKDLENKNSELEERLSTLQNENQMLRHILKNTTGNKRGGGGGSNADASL
The data set is described as follows: EMSA.

The target of data set [2] is T1, ABI4. Briefly: competition.

T1 sequence (A0MES8 whole entry): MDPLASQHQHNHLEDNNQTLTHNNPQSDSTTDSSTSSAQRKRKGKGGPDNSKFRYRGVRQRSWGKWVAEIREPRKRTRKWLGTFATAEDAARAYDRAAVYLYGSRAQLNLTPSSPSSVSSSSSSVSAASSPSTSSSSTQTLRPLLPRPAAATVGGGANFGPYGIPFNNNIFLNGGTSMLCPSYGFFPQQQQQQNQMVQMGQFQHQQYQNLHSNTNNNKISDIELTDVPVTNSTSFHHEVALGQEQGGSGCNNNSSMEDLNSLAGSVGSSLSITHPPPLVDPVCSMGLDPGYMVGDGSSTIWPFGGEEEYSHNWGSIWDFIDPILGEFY

B1: GA2ox7 promoter CCAC probe (dsDNA)
DNA 1: AAACACCCGACCCAATCTAAAAATCCCACCATAAGCCACCCAATTTATTCTTCTTCTTCA
DNA 2: TGAAGAAGAAGAATAAATTGGGTGGCTTATGGTGGGATTTTTAGATTGGGTCGGGTGTTT
With B1, in the data set with ABI4 [1], the binding result was “binds”.

B2: EXP2 promoter probe (dsDNA)
DNA 1: GCGGATATGTAATACGTCCACGTGGCATAAAAGTA
DNA 2: TACTTTTATGCCACGTGGACGTATTACATATCCGC
In the case of B2, the results for the binding result in the data set with ABI4 [1] and in the data set with RGA were “binds” and “no binding”, respectively.

B3: GA2ox7 promoter G-box probe (dsDNA)
DNA 1: TTAGGACACAAACACGTGGTTTTTCATAGCATTGAGAAATTATAATAAAT
DNA 2: ATTTATTATAATTTCTCAATGCTATGAAAAACCACGTGTTTGTGTCCTAA
On to B3, for which the binding result with HY5 is given as “binds”.

B4: GA2ox7 promoter CCAC mutant (m) (dsDNA)
DNA 1: AAACACCCGACCCAATCTAAAAATCTATACATAAGTATACCAATTTATTCTTCTTCTTCA
DNA 2: TGAAGAAGAAGAATAAATTGGTATACTTATGTATAGATTTTTAGATTGGGTCGGGTGTTT
Turning to B4, in the data set with ABI4 [2], the binding result is listed as “no binding”.

Source of the values: article PMC10504559.
